The text below walks through data of patent publication US20170182124A1, “FGF21 Derivatives and Uses Thereof” (Novo Nordisk A/S, priority 2014, published 2017).

One test concerns the target 3T3-L1 adipocytes (Mus musculus, UniProt P16092+Q99N32). Nature of the test: Glucose uptake in 3T3-L1 adipocytes. It is filed as cell-based. The settings on record: stimulated 20 hours, 3H-deoxy-glucose. The procedure: The C-terminal modified analogues were tested for their ability to increase glucose uptake in 3T3-L1 mouse adipocytes. The following assay was used for determining the biological activity, or potency, of FGF21 analogues and derivatives of the invention.
The in vitro potency may also be determined in an assay with mouse 3T3-L1 adipocytes by testing the FGF21 analogues and derivatives for their ability to increase glucose uptake into adipocytes. Differentiated 3T3-L1 adipocytes endogenously express FGFR1c and BKL. The 3T3-L1 cells are unresponsive to FGF21 until after differentiated as differentiation lead to expression of the co-receptor BKL. Activation of the FGFR1 receptor/BKL complex increase the expression of glucose transporter 1 (GLUT1) and therefore FGF21 agonists will lead to an increased amount of glucose taken into the adipocytes in a dose responsive manner.
Mouse 3T3-L1 fibroblasts (e.g. available from ATCC, catalogue no. CL-173) were maintained in basal medium (DMEM (4500 mg/I Glucose) with 10% Fetal Bovine Serum (FBS) and 1% Penicillin/Streptomycin). The cells are not allowed to reach confluence and should be passed (transferred to new vials) before reaching approx. 60% of confluency (by visual inspection).
For the glucose uptake assay, cells were 15.000 cells/well in a 96 well plate (BIOCOAT), and when they reached confluency (high density, with a view to have differentiated adipose cells made), the medium was changed from basal medium to basal medium containing Troglitazone, IBMX, Dexamethasone (commercially available from, e.g., Sigma) and human insulin (commercially available from, e.g., Novo Nordisk A/S).
The cells were used 7-9, days after initiation of differentiation. The cells were stimulated with increasing concentrations (0-300 nM) of the FGF21 analogues or derivatives of the invention for 20 hours in basal medium. Before addition of 3H-deoxy-glucose (in what follows: the tracer) the cells were washed in warm (approximately 37° C.) assay buffer (PBS with 1 mM MgCl2 and 2 mM CaCl2), HEPES and 0.1% Human serum albumin) and the cells were incubated with the tracer for 1 hour. This incubation was terminated by washing twice in ice cold assay buffer. The cells were lysed with Triton X-100 and lysates transferred to a 96 wells plate, microscint-40 (commercially available from, e.g., Perkin Elmer) was added and amount of tracer counted in a TOP-counter (e.g. a Packard top-counter from Perkin Elmer). The EC50 and Emax of the FGF21 compound in question were calculated. The results which are shown in tables 4-5 below indicate the EC50 (potency) and Emax (efficacy) of the FGF21 analogues and derivatives, respectively.

Another test deals with FGF receptor/BKL complex. The experiment in a line: FGF receptor potency in an Erk phosphorylation assay in HEK293 overexpressing human BKL. The format is cell-based. The following applies: for EC50: HEK293/BKL cells, pERK after 12 minutes. Here is the method:
In order to test the binding of the FGF21 derivatives to albumin, the assay was performed in the absence of serum albumin as well as in the presence of human serum albumin (HSA) (0.1% final assay concentration). An increase in EC50 value (decrease in potency) in the presence of serum albumin for FGF21 derivatives would indicate binding to serum albumin and represents a method to predict a protracted pharmacokinetic profile of the test substance in animal models. MetFGF21 (SEQ ID NO:2) is included for reference.
HEK293 cells endogenously express several FGF receptors, including FGFR1c, FGFR3c and FGFR4. These cells are unresponsive to FGF21 until transfected with the co-receptor beta-klotho (BKL). Activation of the FGF receptor/BKL complex leads to activation of the MAPK/ERK signalling pathway and phosphorylation of ERK. The level of phosphorylated ERK (pERK) at a given time point increases with increasing concentrations of FGF21. As described below the level of pERK is measured after 12 minutes of stimulation with a range of FGF21 analogue concentrations.
The HEK293/beta-klotho cells are seeded with 30.000 cells/well in 96 well plates in DMEM (BioWhittaker #BE12-604F/U1), supplemented with 10% FCS (Gibco #16140-071), 1% penicillin/streptomycin (Gibco #15140), 100 µg/ml Hygromycin B, (Calbiochem, # 400052). Two days later and 2 hours before addition of compound the cell medium is exchanged with 100 ∞l basal medium (DMEM (BioWhittaker #BE12-604F/U1)). The FGF21 analogues are diluted in assay medium (DMEM (BioWhittaker #BE12-604F/U1) supplemented with 0.02% Tween20), warmed to 37° C., added to the cells (100 μl) and incubated at 37° C. for 12 minutes. The FGF21 derivatives were also tested in the presence of 0.1% HSA (Sigma—A1887). All medium is quickly removed and 50 μl lysis buffer is added pr. well. The plate is shaken for 5 minutes and the lysate is ready for measurement of pERK. pERK is measured in 384 well plates with the AlphaScreen SureFire kit (PerkinElmer #TGRES10K). This kit is based on ERK and pERK specific antibodies coupled to donor and acceptor beads. The presence of pERK will bring acceptor and donor beads in close proximity and a signal is generated that is read on EnVision. The data are analysed using GraphPad Prism and the potency of the FGF21 proteins is described as absolute EC50 value.

Where [1] appears, read: presence of 0.1% HSA, read-out: EC50 (0.1% HSA).

As a reminder, the EC50 is the midpoint of the concentration-response curve.

Like-named read-outs stand apart in the source and are kept apart here.

Sequence of 3T3-L1 adipocytes (Q99N32 whole entry): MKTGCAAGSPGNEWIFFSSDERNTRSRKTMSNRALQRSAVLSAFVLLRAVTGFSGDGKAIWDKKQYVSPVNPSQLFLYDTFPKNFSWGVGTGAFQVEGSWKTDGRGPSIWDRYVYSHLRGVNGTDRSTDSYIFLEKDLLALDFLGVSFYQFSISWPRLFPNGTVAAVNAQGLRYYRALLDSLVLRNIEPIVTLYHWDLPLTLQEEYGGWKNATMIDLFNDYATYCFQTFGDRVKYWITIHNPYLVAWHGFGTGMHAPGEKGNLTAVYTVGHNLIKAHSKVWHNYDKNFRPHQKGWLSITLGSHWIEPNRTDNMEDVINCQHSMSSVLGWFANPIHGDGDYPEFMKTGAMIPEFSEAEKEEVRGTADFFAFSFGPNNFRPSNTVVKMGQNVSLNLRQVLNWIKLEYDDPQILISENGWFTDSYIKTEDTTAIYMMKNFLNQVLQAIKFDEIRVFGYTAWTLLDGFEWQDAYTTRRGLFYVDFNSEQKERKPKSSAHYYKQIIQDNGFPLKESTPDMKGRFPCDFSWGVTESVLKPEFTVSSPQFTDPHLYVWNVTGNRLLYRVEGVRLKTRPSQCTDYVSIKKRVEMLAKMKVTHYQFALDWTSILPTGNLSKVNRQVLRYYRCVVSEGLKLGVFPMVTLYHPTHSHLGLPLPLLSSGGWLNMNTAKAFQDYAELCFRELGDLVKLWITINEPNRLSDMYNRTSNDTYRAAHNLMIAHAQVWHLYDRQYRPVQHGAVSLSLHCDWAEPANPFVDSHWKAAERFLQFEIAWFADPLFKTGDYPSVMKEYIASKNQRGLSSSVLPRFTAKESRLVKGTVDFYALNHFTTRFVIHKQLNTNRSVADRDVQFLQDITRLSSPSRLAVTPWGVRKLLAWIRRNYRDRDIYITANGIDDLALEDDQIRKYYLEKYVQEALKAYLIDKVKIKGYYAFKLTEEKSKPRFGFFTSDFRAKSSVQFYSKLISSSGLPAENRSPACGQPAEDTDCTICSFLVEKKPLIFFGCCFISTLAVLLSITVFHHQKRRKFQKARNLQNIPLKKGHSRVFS
Sequence of 3T3-L1 adipocytes (P16092 22-822): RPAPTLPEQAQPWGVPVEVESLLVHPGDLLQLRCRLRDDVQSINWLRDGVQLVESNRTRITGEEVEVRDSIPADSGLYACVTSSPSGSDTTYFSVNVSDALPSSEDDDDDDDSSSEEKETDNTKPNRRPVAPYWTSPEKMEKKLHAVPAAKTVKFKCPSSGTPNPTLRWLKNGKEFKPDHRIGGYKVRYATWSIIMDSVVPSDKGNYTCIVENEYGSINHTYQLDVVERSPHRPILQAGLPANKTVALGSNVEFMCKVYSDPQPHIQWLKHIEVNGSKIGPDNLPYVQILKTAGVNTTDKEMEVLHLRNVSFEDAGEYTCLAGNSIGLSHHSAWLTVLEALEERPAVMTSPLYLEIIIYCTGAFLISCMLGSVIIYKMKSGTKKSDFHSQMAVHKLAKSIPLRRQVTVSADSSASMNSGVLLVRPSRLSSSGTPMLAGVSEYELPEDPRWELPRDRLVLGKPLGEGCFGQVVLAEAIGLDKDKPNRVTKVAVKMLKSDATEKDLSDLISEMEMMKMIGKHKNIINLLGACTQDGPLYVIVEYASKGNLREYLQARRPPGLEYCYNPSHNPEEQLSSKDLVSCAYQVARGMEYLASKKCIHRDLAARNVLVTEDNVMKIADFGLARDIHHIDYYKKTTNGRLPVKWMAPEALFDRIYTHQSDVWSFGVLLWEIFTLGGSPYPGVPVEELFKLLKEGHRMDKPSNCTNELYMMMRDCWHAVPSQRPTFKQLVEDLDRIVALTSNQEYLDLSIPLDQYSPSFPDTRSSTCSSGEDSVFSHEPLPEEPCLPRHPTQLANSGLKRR
Sequence of FGF receptor/BKL complex (Q86Z14 whole entry, one chain of several): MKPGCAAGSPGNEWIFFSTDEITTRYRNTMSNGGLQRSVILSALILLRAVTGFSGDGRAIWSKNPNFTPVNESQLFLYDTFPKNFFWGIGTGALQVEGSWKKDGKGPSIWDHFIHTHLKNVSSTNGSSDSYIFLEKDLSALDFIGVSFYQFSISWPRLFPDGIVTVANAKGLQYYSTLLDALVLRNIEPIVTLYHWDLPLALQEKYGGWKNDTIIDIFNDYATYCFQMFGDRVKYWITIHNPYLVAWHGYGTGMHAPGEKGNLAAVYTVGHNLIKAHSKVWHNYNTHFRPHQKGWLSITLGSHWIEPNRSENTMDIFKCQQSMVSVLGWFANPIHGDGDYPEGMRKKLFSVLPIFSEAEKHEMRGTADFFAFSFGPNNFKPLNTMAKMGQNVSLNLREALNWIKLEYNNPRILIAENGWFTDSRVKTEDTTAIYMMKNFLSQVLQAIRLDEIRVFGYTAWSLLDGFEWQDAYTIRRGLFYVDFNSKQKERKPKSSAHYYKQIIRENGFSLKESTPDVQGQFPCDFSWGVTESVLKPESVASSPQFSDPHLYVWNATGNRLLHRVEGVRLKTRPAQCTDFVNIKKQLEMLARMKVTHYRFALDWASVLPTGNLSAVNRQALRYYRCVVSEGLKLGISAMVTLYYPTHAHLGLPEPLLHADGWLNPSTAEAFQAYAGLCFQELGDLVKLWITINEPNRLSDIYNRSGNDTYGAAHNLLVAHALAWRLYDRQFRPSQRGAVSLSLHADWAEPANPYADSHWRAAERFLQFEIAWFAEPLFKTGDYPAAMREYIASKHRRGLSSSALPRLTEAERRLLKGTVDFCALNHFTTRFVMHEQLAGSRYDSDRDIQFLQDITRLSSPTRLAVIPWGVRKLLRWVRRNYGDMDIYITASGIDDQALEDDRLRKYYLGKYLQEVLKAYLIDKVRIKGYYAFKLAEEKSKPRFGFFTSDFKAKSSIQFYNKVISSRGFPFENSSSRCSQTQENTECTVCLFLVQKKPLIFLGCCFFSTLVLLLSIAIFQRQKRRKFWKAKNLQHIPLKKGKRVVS

“S{Beta-178}-[2-[2-[[2-[2-[2-[[2-[2-[2-[[(4S)-4-carboxy-4-(15-carboxypentadecanoyl-amino)butanoyl]amino]ethoxy]ethoxy]acetyl]amino]ethoxy]ethoxy]acetyl]amino]-ethylamino]-2-oxoethyl]-Ala[Gln121,Leu168,Cys178]FGF21 [Compound 11]”: the EC50 at 3T3-L1 adipocytes worked out at 186 nM; at FGF receptor/BKL complex (absence of HSA, read-out: EC50), 167 nM; on FGF receptor/BKL complex (setting [1]), 137 nM. Further, the “Glucose uptake Emax” value on 3T3-L1 adipocytes was 59%.

B1: S{Beta-180}-2-aminoethylsulfanyl-Ala[Gln121, Leu168, Cys180, des181]FGF21 (protein)
chain: AHPIPDSSPLLQFGGQVRQRYLYTDDAQQTEAHLEIREDGTVGGAADQSPESLLQLKALKPGVIQILGVKTSRFLCQRPDGALYGSLHFDPEACSFRELLLEDGYNVYQSEAHGLPLHLPGQKSPHRDPAPRGPARFLPLPGLPPALPEPPGILAPQPPDVGSSDPLSLVGPSQGRSPSYC
modifications: N-terminal Ala; cysteamine disulfide on Cys180
For the molecule B1, the EC50 in the test with 3T3-L1 adipocytes amounted to 73 nM; on FGF receptor/BKL complex (absence of HSA, read-out: EC50) it was 20 nM. Moreover, the “Glucose uptake Emax” value with 3T3-L1 adipocytes worked out at 72%.

B2: S{Beta-180}-2-aminoethylsulfanyl-Ala[Gln121, Leu168, Cys180]FGF21 (protein)
chain: AHPIPDSSPLLQFGGQVRQRYLYTDDAQQTEAHLEIREDGTVGGAADQSPESLLQLKALKPGVIQILGVKTSRFLCQRPDGALYGSLHFDPEACSFRELLLEDGYNVYQSEAHGLPLHLPGQKSPHRDPAPRGPARFLPLPGLPPALPEPPGILAPQPPDVGSSDPLSLVGPSQGRSPSYCS
modifications: N-terminal Ala; cysteamine disulfide on Cys180
For the molecule B2, in the test with 3T3-L1 adipocytes, the midpoint of the response, the EC50, lay at 2.6 nM and the “Glucose uptake Emax” value was 102%. Also, the EC50 at FGF receptor/BKL complex (absence of HSA, read-out: EC50) was 2.3 nM. Moreover, in the test with FGF receptor/BKL complex (absence of HSA), the “potency in HEK293/BKL cells compared with MetFGF21 or corresponding analogue (in words)” value is “potency similar to both MetFGF21 and Compound 2”.

B3: S{Beta-181}-2-aminoethylsulfanyl-Ala[Gln121, Leu168, Cys181]FGF21 (protein)
chain: AHPIPDSSPLLQFGGQVRQRYLYTDDAQQTEAHLEIREDGTVGGAADQSPESLLQLKALKPGVIQILGVKTSRFLCQRPDGALYGSLHFDPEACSFRELLLEDGYNVYQSEAHGLPLHLPGQKSPHRDPAPRGPARFLPLPGLPPALPEPPGILAPQPPDVGSSDPLSLVGPSQGRSPSYAC
modifications: N-terminal Ala; cysteamine disulfide on Cys181
As to B3, in the test with 3T3-L1 adipocytes, the 50% effective concentration (EC50) came out at 5 nM and the “Glucose uptake Emax” value stood at 74%. For the same molecule, the EC50 at FGF receptor/BKL complex (absence of HSA, read-out: EC50) amounted to 27 nM. Also, in the test on FGF receptor/BKL complex (absence of HSA), the “potency in HEK293/BKL cells compared with MetFGF21 or corresponding analogue (in words)” value is listed as “only slightly decreased as compared to MetFGF21”.

B4: S{Beta-179}-2-aminoethylsulfanyl-Ala[Gln121, Leu168, Cys179]FGF21 (protein)
chain: AHPIPDSSPLLQFGGQVRQRYLYTDDAQQTEAHLEIREDGTVGGAADQSPESLLQLKALKPGVIQILGVKTSRFLCQRPDGALYGSLHFDPEACSFRELLLEDGYNVYQSEAHGLPLHLPGQKSPHRDPAPRGPARFLPLPGLPPALPEPPGILAPQPPDVGSSDPLSLVGPSQGRSPSCAS
modifications: N-terminal Ala; cysteamine disulfide on Cys179
B4: in the test with 3T3-L1 adipocytes, a half-maximal effect (EC50) was put at 25 nM and the “Glucose uptake Emax” value is reported as 77%. For the same molecule, on FGF receptor/BKL complex (absence of HSA, read-out: EC50), the concentration giving a half-maximal response (EC50) is 69 nM.

B5: S{Beta-178}-2-aminoethylsulfanyl-Ala[Gln121, Leu168, Cys178]FGF21 (protein)
chain: AHPIPDSSPLLQFGGQVRQRYLYTDDAQQTEAHLEIREDGTVGGAADQSPESLLQLKALKPGVIQILGVKTSRFLCQRPDGALYGSLHFDPEACSFRELLLEDGYNVYQSEAHGLPLHLPGQKSPHRDPAPRGPARFLPLPGLPPALPEPPGILAPQPPDVGSSDPLSLVGPSQGRSPCYAS
modifications: N-terminal Ala; cysteamine disulfide on Cys178
Consider B5, for which, in the test with 3T3-L1 adipocytes, the EC50 was 50 nM and the “Glucose uptake Emax” value is 69%. In addition, the EC50 on FGF receptor/BKL complex (absence of HSA, read-out: EC50) turned out to be 105 nM.

B6: 4-[10-[[(1S)-4-[2-[2-[2-[2-[2-[2-[[(1S)-5-acetamido-1-carboxy-pentyl]amino]-2-oxo-ethoxy]ethoxy]ethylamino]-2-oxo-ethoxy]ethoxy]ethylamino]-1-carboxy-4-oxo-butyl]amino]-10-oxo-decoxy]benzoic … (protein)
chain: HPIPDSSPLLQFGGQVRQRYLYTDDAQQTEAHLEIREDGTVGGAADQSPESLLQLKALKPGVIQILGVKTSRFLCQRPDGALYGSLHFDPEACSFRELLLEDGYNVYQSEAHGLPLHLPGQKSPHRDPAPRGPARFLPLPGLPPALPEPPGILAPQPPDVGSSDPLSLVGPSQGRSPSYAC
Take B6: the EC50 on FGF receptor/BKL complex (absence of HSA, read-out: EC50) is 26.4 nM; on FGF receptor/BKL complex (setting [1]) it was 138 nM.

B7: 4-[10-[[(1S)-4-[2-[2-[2-[2-[2-[2-[[(1S)-5-acetamido-1-carboxy-pentyl]amino]-2-oxo-ethoxy]ethoxy]ethylamino]-2-oxo-ethoxy]ethoxy]ethylamino]-1-carboxy-4-oxo-butyl]amino]-10-oxo-decoxy]benzoic … (protein)
chain: HPIPDSSPLLQFGGQVRQRYLYTDDAQQTEAHLEIREDGTVGGAADQSPESLLQLKALKPGVIQILGVKTSRFLCQRPDGALYGSLHFDPEACSFRELLLEDGYNVYQSEAHGLPLHLPGQKSPHRDPAPRGPARFLPLPGLPPALPEPPGILAPQPPDVGSSDPLSLVGPSQGRSPSYCS
Turning to B7, the EC50 on FGF receptor/BKL complex (absence of HSA, read-out: EC50) worked out at 5 nM; on FGF receptor/BKL complex (setting [1]), 3 nM.

B8: 4-[10-[[4-[2-[2-[2-[2-[2-[2-[[(1S)-5-acetamido-1-carboxy-pentyl]amino]-2-oxo-ethoxy]ethoxy]ethylamino]-2-oxo-ethoxy]ethoxy]ethylamino]-4-oxo-butyl]sulfonylamino]-10-oxo-decoxy]benzoic … (protein)
chain: HPIPDSSPLLQFGGQVRQRYLYTDDAQQTEAHLEIREDGTVGGAADQSPESLLQLKALKPGVIQILGVKTSRFLCQRPDGALYGSLHFDPEACSFRELLLEDGYNVYQSEAHGLPLHLPGQKSPHRDPAPRGPARFLPLPGLPPALPEPPGILAPQPPDVGSSDPLSLVGPSQGRSPSYAC
For B8, the half-maximal effective concentration (EC50) amounted to 24.7 nM at FGF receptor/BKL complex (absence of HSA, read-out: EC50) and 132 nM at FGF receptor/BKL complex (setting [1]).
